Experimental findings from patent publication US9878016B2, “IGFBP-3 derivatives and uses thereof” (INSERM (Institut National de la Sante et de la Recherche …, priority 2011, dated 2018) are described below.

One data set addresses IGF-I (Homo sapiens, UniProt P05019). Description: Affinity for IGF-I: competition with 125I-IGF-1 tracer, Scatchard analysis. The data set is classed as binding. The conditions noted are these: association constant, IGF-I competitor. On the procedure: (§1) The affinity of wild type (wt) IGFBP-3 and of mutated IGFBP-3 (mini-IGFBP-3) for IGF-I and IGF II was determined using ^125I-IGF-1 as a radioactive tracer. Various concentrations of IGF-I and IGF-II were used as competitors and affinity constants were determined by Scatchard analysis.

The target in data set [1] is T1, IGF-II (Homo sapiens, UniProt P01344).
T1 construct: before undergoing regulated endoproteolytic cleavage to the mature form (IGF-II)
T1 sequence (P01344 25-91 limits assumed): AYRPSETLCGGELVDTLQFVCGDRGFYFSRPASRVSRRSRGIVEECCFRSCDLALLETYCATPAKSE
Description: Affinity for IGF-II: competition with 125I-IGF-1 tracer, Scatchard analysis. The data set is classed as binding. Conditions: association constant, IGF-II competitor. On the procedure:
as §1

For data set [2], the system named is AKT phosphorylation in A549 (lung cancer). Description: AKT phosphorylation, A549 cells. In kind it is cell-based, human. The conditions noted are these: different incubation times. The procedure: (§2) These effects are compared to those of ppp (see Example 5 for experimental details). FIG. 11(B) is a graph showing the effects of mini-IGFBP-3-Fc on the phosphorylation of AKT in MiaPaCa-2 cells (upper left), HT-29 cells (upper right) and A549 cells (lower left) and of […] on the phosphorylation of AKT in A549 cells (lower right) after different incubation times, as indicated (see Example 5 for experimental details).
(§3) The inhibiting activity of mini-IGFBP-3-Fc on AKT phosphorylation was also assessed in various human tumor cell lines: MiaPaCa-2 (pancreatic cancer), HT-29 (colon cancer) and A549 (lung cancer). The inhibiting activity of mini-IGFBP-3 on AKT phosphorylation was assessed A549 cells.

A short description of data set [3]: Decay of concentrations in mouse plasma after intravenous injection (ELISA). Conditions: mice, 250 μg intravenously. The data set is classed as in vivo. On the procedure: 250 μg of the indicated protein were injected intravenously to groups (n=3) of mice at time zero. Blood samples were drawn at the indicated time points, centrifuged and kept frozen. Concentrations of injected proteins were determined by an in-house sandwich type ELISA using anti-human IGFBP-3 specific monoclonal antibodies.
To pave the ground for future assessments of mini-IGFBP-3 in vivo activity, mini-IGFBP-3 and its derivatives were injected into mice. When measured using human-specific IGFBP-3 ELISA test, several kinetics could be observed.
In general terms: An ELISA detects its analyte on a solid surface through an enzyme-linked reagent.

Data set [4] relates to HT-29 human colorectal tumor xenografts. Description: Tumor signalling in mice bearing HT-29 xenografts, 12 hours treatment (western immunoblots). Conditions: three i.p. injections (340 μg) every 3 hours, sacrifice at 12 hours; for Erk1/2 phosphorylation in tumors / Rb phosphorylation in tumors: vs untreated. In kind it is in vivo, NMRI-nu mice. On the procedure:
Thus, HT-29 xenografts were established in nude mice. After tumor had reached a critical size, mice were treated with either mini-IGFBP-3 or mini-IGFBP3-Fc in three i.p. injections separated by a three hours interval and mice were sacrificed after […]. Tumor MEK and PI3Kinase signalling pathways were assessed in these tumors, together with the cell cycle regulator Rb, by evaluating the phosphorylation status of AKT, ERK-1/2 and Rb, respectively, using western immunoblots.
More specifically, 2.5×10^6 HT-29 cells were injected s.c. into each flank of 5 weeks old NMRI-nu mice. Tumors were allowed to grow up to a volume of 500 mm^3 before mice were randomized into individual treatment groups (n=2) and received three i.p. injections (340 μg) of either mini-IGFBP-3 or mini-IGFBP-3-Fc every 3 hours. The control group was injected with saline. Twelve (12) hours after treatment initiation, mice were sacrificed and excised tumors were cut in half. One half was snap frozen in liquid nitrogen and stored at −80° C. The other half was fixed in Finfix, included in paraffin and processed for immuno-histochemistry. For Western blot analysis, tumors were homogenized in lysis buffer (10 mM Tris HCl at pH 7.4, 150 mM NaCl, 1% Nonidet P-40, 0.1% sodium deoxycholate, 0.1% SDS, 1 mM EDTA, 2 mM sodium orthovanadate, protease inhibitor tablet [Roche Molecular Biochemicals]). After centrifugation, protein concentrations were determined by the Bio-Rad protein assay (Bio-Rad). Fifteen micrograms of protein were run on a 4%-12% SDS-PAGE gel (Invitrogen). Membranes were blocked in 5% nonfat milk in TBS-T overnight at 4° C., washed with TBS-T, incubated with anti-mouse or anti-rabbit horseradish peroxidase-conjugated secondary antibodies in TBS-T for 1 hour at room temperature, and washed in TBS-T. The signal was visualized using an enhanced chemiluminescence solution and exposed to film. The blotting antibodies used wherein phosphor-Akt, Akt, mitogen-activated protein kinase ERK1/2, phosphor-mitogen-activated protein kinase pErk1/2, Rb (BD Biosciences), β-actin and G3PDH; antibodies were from Cell Signalling Technology unless otherwise stated.
(In general: In western blotting, separated proteins are transferred to a membrane and probed.)

The next data set deals with T2, MMP-7 (Homo sapiens, UniProt P09237).
T2 sequence (P09237 95-267): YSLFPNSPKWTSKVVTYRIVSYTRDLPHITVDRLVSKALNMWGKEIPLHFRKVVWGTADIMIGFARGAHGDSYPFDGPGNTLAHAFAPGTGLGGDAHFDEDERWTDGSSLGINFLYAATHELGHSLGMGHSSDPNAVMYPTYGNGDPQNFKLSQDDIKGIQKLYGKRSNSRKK
Description: Proteolytic digestion by activated MMP-7 (SDS-PAGE). The data set is classed as biochemical. The conditions noted are these: substrate 20 μM, 1:10 molar ratio, enzyme activated with 1 mM APMA. The procedure:
(§4) The ability of mini-IGFBP-3 to resist proteolytic digestion by Matrix Metalloproteinases, MMP-7 and MMP-9, is also currently being tested. MMP-7 and MMP-9 are expressed by tumor cells and are present in higher quantity in the bloodstream of cancer patients where they contribute to the degradation of native, endogenous IGFBP-3. In the experiments, these enzymes are first activated with 1 mM APMA. Mini-IGFBP-3 and full length IGFBP-3 are compared as substrate for activated MMP-7 and MMP-9. Concentrations of each substrate (20 μM) are incubated in a 1:10 molar ratio with either MMP-7 or MMP-9. At the end of the incubation period, proteins are analyzed by SDS-PAGE to evaluate their respective cleavage into fragments.

In a further data set the target is MMP-9 (Homo sapiens, UniProt P14780). Description: Proteolytic digestion by activated MMP-9 (SDS-PAGE). In kind it is biochemical. Conditions: substrate 20 μM, 1:10 molar ratio, enzyme activated with 1 mM APMA. The procedure: as §4
Chain of MMP-9 (P14780 107-707 limits assumed): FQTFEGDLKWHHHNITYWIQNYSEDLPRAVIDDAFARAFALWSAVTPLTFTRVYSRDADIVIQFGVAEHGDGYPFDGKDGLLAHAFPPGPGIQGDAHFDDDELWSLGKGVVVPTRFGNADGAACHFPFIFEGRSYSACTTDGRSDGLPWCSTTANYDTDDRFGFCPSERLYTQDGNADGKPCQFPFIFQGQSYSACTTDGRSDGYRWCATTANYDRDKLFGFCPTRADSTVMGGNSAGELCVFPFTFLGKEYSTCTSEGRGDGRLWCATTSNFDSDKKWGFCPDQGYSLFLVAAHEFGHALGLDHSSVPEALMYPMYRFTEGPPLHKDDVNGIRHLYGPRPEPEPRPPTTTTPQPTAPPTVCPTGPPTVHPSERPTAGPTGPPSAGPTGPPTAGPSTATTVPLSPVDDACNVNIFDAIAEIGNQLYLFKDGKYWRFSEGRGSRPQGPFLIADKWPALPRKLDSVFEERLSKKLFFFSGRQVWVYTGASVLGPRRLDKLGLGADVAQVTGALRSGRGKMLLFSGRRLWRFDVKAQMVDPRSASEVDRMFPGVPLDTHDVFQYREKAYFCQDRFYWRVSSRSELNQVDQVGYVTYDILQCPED
The target of data set [5] is T1, IGF-II. Description: Solid-phase assay: displacement of biotinylated IGF-II tracer from immobilized binding protein. Conditions: increasing free IGF-II. The source says:
FIG. 10(A) is a graph showing the relative binding affinity of mini-IGFBP-3 and mini-IGFBP-3-Fc towards IGF-II. The solid phase assay used measured the ability of increasing concentrations of free IGF-II to displace binding of the biotinylated IGF-II tracer to mini-IGFBP-3 and mini-IGFBP-3-Fc immobilized on a support (See Example 5 for experimental details). FIG. 10(B) is a graph showing the effects of mini-IGFBP-3-Fc on proliferation and survival of three human tumor cell lines cultivated in the presence of 10% FCS: Hep3B, HuH7 and INA-6. The effects of mini-IGFBP-3-Fc are compared to the effects of picropodophyllin (ppp), a compound known to interfere with IGF-R signalling pathway (see Example 5 for experimental details).
A solid-phase assay was used to study the binding affinity of mini-IGFBP-3-Fc for IGF-II. In this assay, two binding proteins (mini-IGFBP-3 and mini-IGFBP-3-Fc) were immobilized to a support. They were incubated with the biotinylated IGF-II tracer, and then increasing concentrations of IGF-II were added.

Another data set relates to Hep3B. Description: Cell viability assay (WST-1), Hep3B. In kind it is cell-based, human. The conditions noted are these: 100 nM, 72 hours, 10% FCS. On the procedure:
(§5) The effects of mini-IGFBP-3-Fc on the proliferation and survival of three human tumor cell lines, Hep3B and HuH7—hepatocellular carcinoma cell lines) and INA-6 (multiple myeloma cell line), were studied. For each cell line cultivated in the presence of 10% fetal calf serum (FCS), the effect of mini-IGFBP-3-Fc were compared to the effect picropodophyllin (ppp), a compound known to interfere with the IGF1-R signalling pathway. A cell viability assay was performed 72 hours after initiation of the culture in the presence of mini-IGFVP-3-Fc (100 nM) or ppp (1 μM) in a medium containing 10% FCS by adding WST-1 and monitoring formazan conversion.

Another data set has as its system HuH7. Description: Cell viability assay (WST-1), HuH7. The data set is classed as cell-based, human. The conditions noted are these: 100 nM, 72 hours, 10% FCS. On the procedure:
as §5
(In general: Formazan colour is commonly taken as a measure of viable cells.)

The next data set deals with INA-6. Description: Cell viability assay (WST-1), INA-6. The data set is classed as cell-based, human. Conditions: 100 nM, 72 hours, 10% FCS. The procedure:
as §5

The subject of data set [6] is phosphorylation of AKT in INA-6 myeloma cells. Description: AKT phosphorylation, INA-6 myeloma cells (western blot). Conditions: 100 nm; 3, 6 or 24 hours; 10% FCS. In kind it is cell-based. The procedure: The INA-6 myeloma cell line was grown in the presence of 10% FCS. The cells were incubated with mini-IGFBP-3 (100 nm) or ppp (1 μM) 3, 6 or 24 hours. After incubation, the cells were lysed using a lysis buffer, and cell extracts (normalized for protein contents) were loaded on SDS-PAGE gel, transferred onto nitrocellulose membrane, which was further incubated with a monoclonal antibody directed against the […] residue of the AKT protein. The membrane was also re-probed after stripping with an anti-actin antibody to check for equal loading.

In data set [7] the test system is AKT phosphorylation in MiaPaCa-2 (pancreatic cancer). Description: AKT phosphorylation, MiaPaCa-2 cells. In kind it is cell-based, human. Conditions: different incubation times. The procedure:
as §2, §3

Data set [8] has as its system AKT phosphorylation in HT-29 (colon cancer). Description: AKT phosphorylation, HT-29 cells. In kind it is cell-based, human. The conditions noted are these: different incubation times. The procedure: as §2, §3

Chain of IGF-I (P05019 49-118 limits assumed): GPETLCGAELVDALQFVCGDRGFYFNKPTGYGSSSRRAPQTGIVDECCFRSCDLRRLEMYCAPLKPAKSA

Consider “mini-IGFBP-3: Human IGFBP-3 mutein: 85 central-domain residues (95 to 179) replaced by 15 amino acid spacer GGGSGGSGGSGGSGG (SEQ ID NO: 4)”, for which the “affinity constant for IGF-I” value with IGF-I is 2.4e+10 M⁻¹. Besides, the “affinity constant for IGF-II” value in the data set with IGF-II [1] is 3.14e+10 M⁻¹. In data set [2], the “AKT phosphorylation in A549 cells” value is recorded as “able to block the AKT phosphorylation”. Also, in [3], the “fraction of the initial dose that left the bloodstream in the first 3-4 hours” value is 80-90% and the “remaining fraction that disappeared very slowly until 48 hours” value is listed as 10-20%. Moreover, in [4], the “AktS473 phosphorylation in tumors” value is reported as “abolished”, the “mitotic index compared to untreated tumors” value is given as −12%, the “Erk1/2 phosphorylation in tumors” value was “considerably decreased” and the “Rb phosphorylation in tumors” value was “decreased”. Besides, the “cleavage by MMP-7” value with MMP-7 is “resists this proteolytic attack”. Moreover, the “cleavage by MMP-9” value in the data set with MMP-9 is listed as “resists this proteolytic attack”.

As to “wt IGFBP-3: Recombinant wild type human IGFBP-3 with hexahistidine N-terminal extension, comparator [reference compound]”, in the data set with IGF-I, the “affinity constant for IGF-I” value is 2.96e+10 M⁻¹. In addition, the “affinity constant for IGF-II” value with IGF-II [1] was determined as 3.5e+10 M⁻¹. The “cleavage by MMP-7” value with MMP-7 was “digested”. The “cleavage by MMP-9” value with MMP-9 was “digested”.

B1: mini-IGFBP-3-Fc: Immunoadhesin fusion protein joining mini-IGFBP-3 to the Fc fragment of human IgG1 (protein)
chain: GASSAGLGPVVRCEPCDARALAQCAPPPAVCAELVREPGCGCCLTCALSEGQPCGIYTERCGSGLRCQPSPDEARPLQALLDGRGLCVNASAVSGGGSGGSGGSGGSGGETEYGPCRREMEDTLNHLKFLNVLSPRGVHIPNCDKKGFYKKKQCRPSKGRKRGFCWCVDKYGQPLPGYTTKGKEDVHCYSMQSK
modifications: left off: a dimerising Fc or GST
notes: Immunoadhesin fusion protein joining mini-IGFBP-3 to the Fc fragment of human IgG1
On to B1, for which the “apparent affinity for IGF-II compared with unfused mini-IGFBP-3” value in the data set with IGF-II [5] is reported as “higher apparent affinity”. In the data set with Hep3B, the “proliferation and survival of Hep3B” value is reported as “anti-proliferative activity”. Moreover, in the data set with HuH7, the “proliferation and survival of HuH7” value is reported as “anti-proliferative activity”. Further, the “proliferation and survival of INA-6” value in the data set on INA-6 is recorded as “anti-proliferative activity”. Further, in [6], the “phosphorylation of AKT in INA-6 cells” value is “inhibiting effects”. The “AKT phosphorylation in MiaPaCa-2 cells” value in data set [7] is given as “able to block the AKT phosphorylation”. Further, the “AKT phosphorylation in HT-29 cells” value in data set [8] was “able to block the AKT phosphorylation”. Also, in [2], the “AKT phosphorylation in A549 cells” value is “able to block the AKT phosphorylation”. Further, the “half-life of serum concentration” value in [3] (single slope kinetics) is given as “about 12 hours”. In data set [4], the “AktS473 phosphorylation in tumors” value is reported as “abolished”, the “mitotic index compared to untreated tumors” value is reported as −12%, the “Erk1/2 phosphorylation in tumors” value is “considerably decreased” and the “Rb phosphorylation in tumors” value is listed as “decreased”.
